The text below walks through data of patent US20150045291A1 (YEDA RESEARCH AND DEVELOPMENT, published 2015).

The target in the first test is HIV-1 AD8 ENV (CCR5 tropic) (HIV-1 AD8). The test can be described thus: cell-based or functional assay.
As to LLQLTVWGIKQLQARIL (sphinganine (dihydrosphingosine) on the N-terminus) [Sphinganine-N17], the “IC50, infection of TZM-bl cells by pseudotyped virus” value is 403 nM.

Another test has as its target HIV-1 LAI ENV (CXCR4 tropic) (HIV-1 LAI, UniProt P03377 33-861). The experiment in a line: cell-based or functional assay.
As for LLQLTVWGIKQLQARIL (sphinganine (dihydrosphingosine) on the N-terminus) [Sphinganine-N17], the “IC50, infection of TZM-bl cells by pseudotyped virus” value amounted to 312 nM.

A further test addresses T1, HIV-1 HXB2 envelope protein (ENV), gp41 transmembrane subunit (HIV-1 HXB2, UniProt P04578 33-856). The experiment in a line: cell-based or functional assay.
Take LLQLTVWGIKQLQARILK (sphinganine on the N-terminus) [Sphinganine-N17K]: the “inhibitory concentration at 50% infectivity (IC50)” value came out at 116 nM.

As to LLQLTVWGIKQLQARILK (sphinganine on the side chain of the C-terminal Lys) [N17K-sphinganine], the “IC50 value, viral infectivity” value stood at 287 nM.

For the next test, the target named is T1, HIV-1 HXB2 envelope protein (ENV), gp41 …. The test can be described thus: cell-based or functional assay. This is another data set of the same source.
As for LLQLTVWGIKQLQARIL (palmitic acid (C16) on the N-terminus) [Palmitic acid-N17], the “IC50 (nM), antiviral activity in a fully infectious HIV-1 system” value (“IC50 (nM), antiviral activity” for short) was > 4000 nM.

ELQLTQWKIKQLLARILK (sphinganine on the side chain of the C-terminal Lys) [N17mut (e, g) K-sphing]: the “IC50 (nM), antiviral activity” value was 120 nM.

As for LLQLTVWGIKQLQARILK [N17K], the “IC50 (nM), antiviral activity” value is > 4000 nM.

As to LLQLTVWGIKQLQARIL [N17], the “IC50 (nM), antiviral activity” value is > 4000 nM.

Turning to ELQLTQWKIKQLLARILK [N17mut (e, g) K], the “IC50 (nM), antiviral activity” value is > 4000 nM.

With LLQLTVWGIKQLQA (sphinganine on the N-terminus) [Sphing-N14], the “IC50 (nM), antiviral activity” value came out at 500 nM.

As to LLQLTVWGIKQLQARIL (tocopherol (alpha-tocopherol succinate) on the N-terminus) [Tocopherol-N17], the “IC50 (nM), antiviral activity” value is > 4000 nM.

Take LLQLTVWGIKQLQARIL (sphingosine on the N-terminus) [Sphingosine-N17]: the “IC50 (nM), antiviral activity” value was determined as 208 nM.

Regarding LLQLTVWGIKQLQA [N14], the “IC50 (nM), antiviral activity” value was > 4000 nM.

For the molecule YTSLIHSLIEESQNQQEKNK (sphinganine on the side chain of the C-terminal Lys) [DP19K-sphinganine], the “IC50 (nM), antiviral activity” value came to 350 nM.

Take LLQLTVWGIKQLQARILK (sphinganine on the N-terminus) [Sphinganine-N17K]: the “IC50 (nM), antiviral activity” value is 118 nM.

On to YTSLIHSLIEESQNQQEKNK [DP19K], for which the “IC50 (nM), antiviral activity” value was found to be 2210 nM.

Consider ELQLTQWKIKQLLARILK (sphinganine on the N-terminus) [Sphing-N17mut (e, g) K], for which the “IC50 (nM), antiviral activity” value amounted to 120 nM.

In the case of LLQLTVWGIKQLQARIL (sphinganine (dihydrosphingosine) on the N-terminus) [Sphinganine-N17], the “IC50 (nM), antiviral activity” value was 121 nM.

In the case of LQARILAVERYLKDQQL (sphinganine on the N-terminus) [Sphinganine-ShN17], the “IC50 (nM), antiviral activity” value was found to be 886 nM.

In the case of LLQLTVWGIKQLQARILK (sphinganine on the side chain of the C-terminal Lys) [N17K-sphinganine], the “IC50 (nM), antiviral activity” value was determined as 291 nM.

For the molecule LLQLTVWGIKQLQARIL (cholesterol on the N-terminus) [Cholesterol-N17], the “IC50 (nM), antiviral activity” value is > 4000 nM.
